According to PMC4608048:

Target: UbcH10^LR (as used in surface plasmon resonance) (human)
Assay: SPR

K^kin d (fast): 24 nM | K^kin d (slow): 23 nM | koff (fast): 0.04 s⁻¹ | koff (slow): 0.0046 s⁻¹ | kon (fast): 1.7e+06 M⁻¹ s⁻¹ | kon (slow): 170000 M⁻¹ s⁻¹
Substance: APC/C^Cdh1.Hsl1 (from UniProt Q9H1A4;Q9UJX6;P30260;Q9UJX5;Q9UJX4;Q13042;Q9UJX3;Q9UJX2;Q9UM13;Q9NYG5;Q8NHZ8;Q9BS18;P60006;Q96DE5;Q9UM11-2;P34244) (complex)
